Here are results for one molecule from patent EP4663202A1 (Innovent Biologics (Suzhou) Co., Ltd., dated 2025).

The target of assay [1] is T1, human VEGFC (human, UniProt P49767 103-227, limits assumed).
T1 sequence (looked up): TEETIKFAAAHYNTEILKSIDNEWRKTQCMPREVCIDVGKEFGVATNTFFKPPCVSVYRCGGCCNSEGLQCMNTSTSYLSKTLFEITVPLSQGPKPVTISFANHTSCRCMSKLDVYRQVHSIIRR
The assay can be described thus: cell-based or functional assay.

The target in assay [2] is T1, human VEGFC. The assay is described as follows: biolayer interferometry (ForteBio), monovalent antigen-antibody binding, 30 C.

B1: anti-VEGFC antibody am63G12.1-5G8-18B9 (VHH)
VHH: EVQLVESGGGLVQPGGSLRLSCAASGSSFSPYAMGWYRQAPGKQRELVSATSSGGFTLYADSVKGRFTISRDNSKNTVYLQMNSLRAEDTAVYYCYTYYREYDPEMYWGQGTQVTVSS
notes: also called anti-VEGFC humanized VHH antibody
Consider B1, for which, in the assay with human VEGFC [1], the “IC50 of inhibition of VEGFC-induced activation of the KDR signaling pathway (NFAT-RE-luc2P/KDR HEK293 reporter cells)” value was roughly 4.46 nM; the “IC50 of inhibition of hVEGFC-induced BaF3-FLT4 survival and proliferation (CCK-8)” value came out at 0.792 nM. Moreover, in the assay with human VEGFC [2], the Kd (as a rule, the free concentration of one partner at which half of the binding sites on the other are occupied at equilibrium, for simple one-to-one binding) was 5.7 nM; the off-rate constant (koff) (as a rule, a measure of how fast the partners let go of each other) stood at 0.00036 s⁻¹; the association rate constant (kon) (as a rule, a measure of how fast the partners come together) stood at 63100 M⁻¹ s⁻¹.
